Here are results for one molecule from patent publication US20220332804A1 (CSL INNOVATION, published 2022).

Residue numbers refer to the chain shown, from its start.

Test in all cases: SPR, KD relative to WT C2;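 further: biacore SPR at 37 °C, anti-C2 mAbs captured via immobilised goat anti-human IgG, C2 alanine or serine surface mutants as analytes, 1:1 model fitted, double-referenced sensograms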
For orientation: SPR reads the build-up and loss of mass on a sensor chip optically.

The target of one assay is T1, human C2 H435A (human, UniProt P06681 21-752).
T1 sequence: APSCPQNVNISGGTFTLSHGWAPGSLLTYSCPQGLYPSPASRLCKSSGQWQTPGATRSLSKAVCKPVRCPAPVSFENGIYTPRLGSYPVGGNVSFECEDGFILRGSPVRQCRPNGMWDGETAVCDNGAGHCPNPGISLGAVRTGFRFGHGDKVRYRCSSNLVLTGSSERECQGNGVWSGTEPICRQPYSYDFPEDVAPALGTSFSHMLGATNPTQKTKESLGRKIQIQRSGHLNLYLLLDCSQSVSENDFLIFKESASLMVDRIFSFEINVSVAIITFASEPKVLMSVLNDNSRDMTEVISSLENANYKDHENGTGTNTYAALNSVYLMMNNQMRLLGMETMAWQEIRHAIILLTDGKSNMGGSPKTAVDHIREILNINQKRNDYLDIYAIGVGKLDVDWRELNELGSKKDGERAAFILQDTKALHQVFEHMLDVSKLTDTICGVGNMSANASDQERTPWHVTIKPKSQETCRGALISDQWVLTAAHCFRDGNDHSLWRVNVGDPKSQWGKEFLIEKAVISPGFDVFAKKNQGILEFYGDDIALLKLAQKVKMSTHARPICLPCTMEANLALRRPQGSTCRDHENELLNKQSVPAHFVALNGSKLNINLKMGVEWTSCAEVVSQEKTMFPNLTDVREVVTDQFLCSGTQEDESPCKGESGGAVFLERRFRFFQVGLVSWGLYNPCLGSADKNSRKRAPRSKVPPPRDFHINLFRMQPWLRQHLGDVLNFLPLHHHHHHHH

The target of another assay is T2, human C2 E476A (human, UniProt P06681 21-752).
T2 sequence: T1 sequence with A415H, E456A

For another assay, the target named is T3, human C2 Y328A (human, UniProt P06681 21-752).
T3 sequence: T1 sequence with Y308A, A415H

In a further assay the target is T4, human C2 I272A (human, UniProt P06681 21-752).
T4 sequence: T1 sequence with I252A, A415H

B1: RF16-226 (antibody, human IgG4 S228P, lambda)
heavy: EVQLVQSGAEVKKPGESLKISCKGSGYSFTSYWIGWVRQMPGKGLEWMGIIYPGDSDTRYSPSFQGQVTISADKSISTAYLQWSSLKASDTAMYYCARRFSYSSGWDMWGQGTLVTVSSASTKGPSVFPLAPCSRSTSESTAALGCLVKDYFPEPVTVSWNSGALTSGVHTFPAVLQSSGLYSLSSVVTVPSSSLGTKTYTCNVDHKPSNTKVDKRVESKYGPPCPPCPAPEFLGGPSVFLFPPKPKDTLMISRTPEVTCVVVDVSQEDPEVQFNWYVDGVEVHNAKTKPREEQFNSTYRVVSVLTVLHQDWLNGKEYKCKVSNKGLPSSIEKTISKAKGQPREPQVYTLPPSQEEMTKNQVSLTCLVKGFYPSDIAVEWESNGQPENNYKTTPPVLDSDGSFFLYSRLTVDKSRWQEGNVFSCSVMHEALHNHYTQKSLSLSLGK
light: SYELTQPPSVSVSPGQTARITCSGDALTSKYVAWYQQKSGLAPLLVIYEDTRRPSGIPAKFSGSSSGSVATLTISGAHGDDEADYYCYSTDASGHQRVFGGGTKLTVLSQPKAAPSVTLFPPSSEELQANKATLVCLISDFYPGAVTVAWKADGSPVKAGVETTKPSKQSNNKYAASSYLSLTPEQWKSHRSYSCQVTHEGSTVEKTVAPTECS
notes: pH-dependent anti-C2 antibody from a phage display library; also called WT
B1: the Fold diff with human C2 H435A turned out to be 2 fold; with human C2 E476A, 2 fold; with human C2 Y328A, 8 fold; in the assay with human C2 I272A it was 1 fold.
